The assay concerns the target T1, human PSGL-1 (human, UniProt Q14242 42-412).
T1 sequence: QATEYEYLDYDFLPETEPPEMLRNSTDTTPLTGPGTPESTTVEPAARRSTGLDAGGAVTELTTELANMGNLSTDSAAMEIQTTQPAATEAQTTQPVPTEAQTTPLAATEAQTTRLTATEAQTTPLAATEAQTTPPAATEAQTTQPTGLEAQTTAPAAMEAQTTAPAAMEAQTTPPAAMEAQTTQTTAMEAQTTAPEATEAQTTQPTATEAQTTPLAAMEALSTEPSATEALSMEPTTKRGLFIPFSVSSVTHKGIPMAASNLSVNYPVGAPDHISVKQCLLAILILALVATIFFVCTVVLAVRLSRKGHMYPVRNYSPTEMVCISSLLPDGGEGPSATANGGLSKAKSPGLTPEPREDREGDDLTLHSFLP
The assay can be described thus: cell-based or functional assay.

B1: anti-PSGL-1 antibody 15A7H (antibody, human IgG4 S228P, kappa, V domains shown)
VH: EVQLVESGGGLVQPGGSLRLSCAASGFTFSSFGMHWVRQAPGKGLEWVAYINGGSSTIFYANAVKGRFTISRDNAKNTLYLQMNSLRAEDTAVYYCARYASYGGGAMDYWGQGTLVTVSS
VL: DIQMTQSPSSLSASVGDRVTITCRSSQSIVHNDGNTYFEWYQQKPGKAPKLLIYKVSNRFSGVPSRFSGSGSGTHFTLTISSLQPEDFATYYCFQGSYVPLTFGQGTKVEIKR
For the molecule B1, the “EC50 15A7H, single treatment; apoptosis of activated T cells (Annexin V/PI, 48 h, with cross-linker), donor N084, ratio block 1.1:1” value is 0.328 µg/mL; the “EC50 15A7H, single treatment; apoptosis of activated T cells (Annexin V/PI, 48 h, with cross-linker), donor N084, ratio block 3.3:1” value was found to be 0.328 µg/mL; the “EC50 15A7H, single treatment; apoptosis of activated T cells (Annexin V/PI, 48 h, with cross-linker), donor N089, ratio block 1.1:1” value came out at 0.816 µg/mL; the “EC50 15A7H, single treatment; apoptosis of activated T cells (Annexin V/PI, 48 h, with cross-linker), donor N089, ratio block 3.3:1” value came out at 0.865 µg/mL. Moreover, the “EC50 15A7H, single treatment; apoptosis of activated T cells (Annexin V/PI, 48 h, with cross-linker), donor N102, ratio block 0.37:1” value worked out at 0.959 µg/mL; the “EC50 15A7H, single treatment; apoptosis of activated T cells (Annexin V/PI, 48 h, with cross-linker), donor N102, ratio block 1.1:1” value amounted to 0.959 µg/mL; the “EC50 15A7H, single treatment; apoptosis of activated T cells (Annexin V/PI, 48 h, with cross-linker), donor N102, ratio block 3.3:1” value was 0.959 µg/mL; the “EC50 15A7H, single treatment; apoptosis of activated T cells (Annexin V/PI, 48 h, with cross-linker), donor N103, ratio block 0.37:1” value was 1.4 µg/mL. The “EC50 15A7H, single treatment; apoptosis of activated T cells (Annexin V/PI, 48 h, with cross-linker), donor N103, ratio block 1.1:1” value is 1.4 µg/mL and the “EC50 15A7H, single treatment; apoptosis of activated T cells (Annexin V/PI, 48 h, with cross-linker), donor N103, ratio block 3.3:1” value worked out at 1.4 µg/mL.

Values taken from patent US20230149544A1 (ALTRUBIO, published 2023).
